Data on one molecule can be found in patent US10889805B2, “Intestinal epithelioid cells” (National Institutes of Biomedical Innovation, Health and …, priority 2015, dated 2021).

One assay has as its system VILLIN. Briefly: VILLIN expression by quantitative real-time RT-PCR in cells differentiating from human iPS cells to enterocyte-like cells. Type of assay: cell-based. The following applies: compound added with BIO and DAPT, 5 days culture; versus control without the compounds; FIG. 3B. How it is done:
(§1) The definitive endoderm cells generated from the human iPS cell line (Tic) by the method described in Example 1 above were further cultured for 15 days using the medium 3. During a period from day 4 to day 19 after the initiation of differentiation induction, BIO (5 μM) and DAPT (10 μM) were added to the culture system. Simultaneously with the addition of the BIO and the DAPT, the cells were further cultured for 5 days using the medium 3 supplemented with any one of phorbol-myristate-acetate (PMA), transforming growth factor β1 (TGEβ1), Wortmannin, Noggin, SB431542, Follistatin, EGF, R-spondin1, Pentagastrin, or Wnt3a (FIG. 2A and FIG. 3A).
(§2) With regard to the measurement of the enterocyte markers ANPEP and VILLIN, each of the enterocyte markers was measured by a quantitative real-time RT-PCR method using SYBR Green gene expression assays (APPLIED BIOSYSTEMS). […] Thus, high expressions of ANPEP and VILLIN were found when the cells were cultured in the system containing SB431542, EGF, or Wnt3a.
(§3) The quantitative real-time RT-PCR was performed by the following method. […] A quantitative real-time RT-PCR method using SYBR Green gene expression assays (APPLIED BIOSYSTEMS) was performed, and quantification was performed with STEPONEPLUS real-time PCR System (APPLIED BIOSYSTEMS).
For orientation: In qPCR the cycle at which signal appears reflects the starting amount.

The test system of a further assay is ANPEP. Kind of assay: ANPEP expression by quantitative real-time RT-PCR in cells differentiating from human iPS cells to enterocyte-like cells. In kind it is cell-based. The following applies: compound added with BIO and DAPT, 5 days culture; versus control without the compounds; FIG. 2B. The protocol: as §1, §2, §3

B1: Wnt3a (protein, UniProt P56704 19-352, looked up)
Protein Wnt-3a: SYPIWWSLAVGPQYSSLGSQPILCASIPGLVPKQLRFCRNYVEIMPSVAEGIKIGIQECQHQFRGRRWNCTTVHDSLAIFGPVLDKATRESAFVHAIASAGVAFAVTRSCAEGTAAICGCSSRHQGSPGKGWKWGGCSEDIEFGGMVSREFADARENRPDARSAMNRHNNEAGRQAIASHMHLKCKCHGLSGSCEVKTCWWSQPDFRAIGDFLKDKYDSASEMVVEKHRESRGWVETLRPRYTYFKVPTERDLVYYEASPNFCEPNPETGSFGTRDRTCNVSSHGIDGCDLLCCGRGHNARAERRREKCRCVFHWCCYVSCQECTRVYDVHTCK
notes: humoral factor added to the culture system
As to B1, the “expression of VILLIN” value in the assay on VILLIN is given as “high value”. Further, in the assay on ANPEP, the “expression of ANPEP” value was “high value”.
